Here are results for four molecules from US8642555B2, “Prodrugs” (KTB Tumorforschungsgesellschaft mbH, priority 2009, dated 2014).

Numbered stars: 1 amine (or outer) side, 2 acyl side, 3 side chain; on linkers, the order of the positions; unused ones are H or OH. Square brackets hold non-standard residues; d marks the D form. Peptide text beside a SMILES is read from it. * marks the point of attachment. ξ: configuration not given here. X1 = COc1cccc2c1C(=O)c1c(O)c3c(c(O)c1C2=O)C[C@@](O)(C(=O)CO)CC3O[C@H]1C[C@@H](N*)C(O)[C@H](C)O1; Hexanoyl(6-maleimido) = O=C1C=CC(=O)N1CCCCCC(=O)*; PABC = O=C(OCc1ccc(N[*:1])cc1)[*:2]; ξY = NC(Cc1ccc(O)cc1)C(=O)O; ξR = N=C(N)NCCCC(N)C(=O)O; ξL = CC(C)CC(N)C(=O)O; ξS = NC(CO)C(=O)O Bounds are passed on as bounds.

Data set [1] can be described thus: Water-solubility.
The conditions of data set [2]: cited from earlier work.
For data set [3] the following is noted: in vivo; cited from earlier work.

Take `COc1cccc2c1C(=O)c1c(O)c3c(c(O)c1C2=O)C[C@@](O)(C(=O)CO)CC3O[C@H]1C[C@@H](NC(=O)OCc2ccc(NC(=O)C(CC(C)C)NC(=O)C(CO)NC(=O)C(Cc3ccc(O)cc3)NC(=O)C(Cc3ccc(O)cc3)NC(=O)C(CO)NC(=O)C(CO)NC(=O)C(CCCNC(=N)N)NC(=O)CCCCCN3C(=O)C=CC3=O)cc2)C(O)[C@H](C)O1` (stereo partly drawn) [compound 6, EMC-Arg-Ser-Ser-Tyr-Tyr-Ser-Leu-PABC-DOXO] ({Hexanoyl(6-maleimido)}-[ξR][ξS][ξS][ξY][ξY][ξS][ξL][PABC]-X1): the water-solubility entry in data set [1] is given as “excellent water-solubility”.
With `CC(=O)O[C@H]1C(=O)[C@@]2(C)C([C@H](OC(=O)c3ccccc3)[C@]3(O)C[C@H](OC(=O)[C@H](OC(=O)OCc4ccc(NC(=O)C(CC(C)C)NC(=O)C(CO)NC(=O)C(Cc5ccc(O)cc5)NC(=O)C(Cc5ccc(O)cc5)NC(=O)C(CO)NC(=O)C(CO)NC(=O)C(CCCNC(=N)N)NC(=O)CCCCCN5C(=O)C=CC5=O)cc4)[C@@H](NC(=O)c4ccccc4)c4ccccc4)C(C)=C1C3(C)C)[C@]1(OC(C)=O)CO[C@@H]1C[C@@H]2O` (stereo partly drawn) [compound 10, EMC-Arg-Ser-Ser-Tyr-Tyr-Ser-Leu-PABC-Paclitaxel], in data set [1], the water-solubility entry is listed as “excellent water-solubility”.
As for `COc1cccc2c1C(=O)c1c(O)c3c(c(O)c1C2=O)CC(O)(C(=O)CO)CC3OC1CC(NC(=O)C(CCCNC(=N)N)NC(=O)C(N)CO)C(O)C(C)O1` (stereo not drawn) [Ser-Arg-DOXO], in data set [2], the “half-life of liberation of free doxorubicin from the dipeptide” value is on record as more than 48 h.
As for albumin, the “half-life in the systemic circulation” value in data set [3] is recorded as “up to 19 days”.
